From paper PMC9425029, “Secretagogin is a Ca^2+-dependent stress-responsive chaperone that may also play a role in aggregation-based proteinopathies” (The Journal of Biological Chemistry, 2022)

Molecular target: the molecule itself
Assay: SAXS; oxidizing conditions (100 μM H2O2), SCGN about 5-15 mg/ml, without or with 8 mM Ca2+; 50 mM Tris pH 7.5, 100 mM KCl

B1: Secretagogin (mouse SCGN) (natural protein, UniProt Q91WD9 1-276, looked up)
chain: MDNARRKTPARLDAACFWQIWQRFDKEEKGYIRETELDAFFDHLLAKSGTEDTLMEENVQKVKEQLMTSHNVSKEGRILMKELASMFLSEDENFLLFFRLETPLDNSVEFMQIWRKYDADSSGFISAAELCNFLRDLFLHHKKNISEAELEEYTSTMMKIFDKNKDGRLDLNDLARILALQENFLLQFKMDASSTEERKRDFEKIFAHYDVSKTGALEGPEVDGFVKDMMELVQPSISGVDLDKFREILLRHCDVNKDGKIQKSELALCLGLKINP
notes: secretagogin, mouse, cloned in pET21b; Used Ca2+-free (apo) or with Ca2+ (holo); the assays tell them apart; also called apo-SCGN; holo-SCGN; source: E. coli BL21-DE3 (pET21b), purified (Ni-NTA-Sepharose, size-exclusion chromatography), decalcified with EDTA
binding result: binds
